Reference: US6489299B2, “Methods for treatment of multiple sclerosis using peptide analogues at position 91 of human myelin basic protein” (Stanford University Medical Center, priority 1994, dated 2002)

How the values were obtained:
[1] = tested on: EAE; details: rat, in vivo
Protocol: In addition, as a safety measure, but not essential to this invention, suitable peptide analogues may be tested for direct induction of EAE. As described in detail in Example 2, various amounts of peptide analogues are injected at the base of the tail of rats, and the rats examined daily for signs of EAE. A peptide analogue which is not considered to cause EAE has a mean cumulative score of less than or equal to 1 over seven days when 1 mg (5 mg/kg) in complete Freund's adjuvant is injected.
MBP peptides and analogues were dissolved in phosphate-buffered saline (PBS) and emulsified with an equal volume of incomplete Freund's adjuvant supplemented with 4 mg/ml heat-killed Mycobacterium tuberculosis H37Ra in oil (Difco Laboratories, Inc., Detroit, Mich.). Rats were immunized subcutaneously in the hind foot pads with 0.1 ml of the emulsion and were monitored for clinical signs daily by an observer blind to the treatment protocol. For intravenous injections MBP peptides and analogues were dissolved in normal saline. EAE was scored as follows: 0, clinically normal; 1, flaccid tail; 2, hind limb paralysis; 3, front and hind limb paralysis.
The ability of peptide analogues to cause EAE is assessed in vivo. Rats were injected with MBP (87-99) or (91K>A) peptide analogue as described in Example 2. Animals were monitored daily for evidence of EAE. Rats receiving MBP (87-99) had 100% incidence (18/18 rats) of EAE with a mean maximum clinical score of 2.4±0.2. In contrast, 0/12 rats receiving the peptide analogue (91k>A) had EAE.

[2] = tested on: multiple sclerosis; details: human, in vivo; cited from earlier work

Molecule: MBP(68-88): EAE-inducing myelin basic protein peptide from a different region (KRTADPKNAWQDAHPADPGSR; UniProt P02686 68-88, looked up, fragment) [reference compound]
- EAE Incidence [1]: 6/6
- EAE Mean Maximum Clinical Score [1]: 3 ± 0

B1: IFN-γ: cytokine administered to MS patients in a pilot study (protein, UniProt P01579 24-161, looked up)
Interferon gamma: QDPYVKEAENLKKYFNAGHSDVADNGTLFLGILKNWKEESDRKIMQSQIVSFYFKLFKNFKDDQSIQKSVETIKEDMNVKFFNSNKKKRDDFEKLTNYSVTDLNVQRKAIHELIQVMAELSPAAKTGKRKRSQMLFRG
- patients with a clinical exacerbation within one month after initiation of treatment [2]: 7 of 18
- specific response to MBP (in words) [2]: increase
